Experimental data: paper PMC6471214

Assays:
Biotinylated tubulin [1] = molecular target: Biotinylated tubulin (UniProt P02550); test: LSPR (extinction maximum wavelength of gold nanoparticles) + fluorescence microscopy; short MT sample: biotinylated tubulin (7% of the tubulin mix, with 4% Rhodamine-labeled tubulin) held on 80 nm biotin-PEG AuNPs through neutravidin; BRB80 pH 6.8, 0.025% Tween 20; GMPCPP, 37 °C for 30 min; stabilised with 10 µM paclitaxel; spectra at room temperature
Biotinylated tubulin [2] = molecular target: Biotinylated tubulin (UniProt P02550); test: LSPR (extinction maximum wavelength of gold nanoparticles) + fluorescence microscopy; long MT sample: as the short MT sample, then 10 volumes of 4 µM tubulin (4% Rhodamine-labeled) with 0.5 mM GMPCPP added, 20 more min at 37 °C before paclitaxel

λmax (LSPR extinction maximum wavelength) (Biotinylated tubulin [1]): 553 nm
λmax (LSPR extinction maximum wavelength) (Biotinylated tubulin [2]): 553 nm
Substance: Porcine tubulin (α/β-tubulin heterodimer subunits) (from UniProt P02550 1-451; P02554 1-445) (complex)
